Assay [1] has as its target T1, phospholamban (PLN), wild type, in mouse heart (mouse), P61014.
T1 chain: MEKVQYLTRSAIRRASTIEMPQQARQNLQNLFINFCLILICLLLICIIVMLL
Description: SDS-PAGE and western blot. The note with it: remark: other sources report otherwise. For orientation: Immunoblotting shows a protein as a band on a membrane.

The target in assay [2] is T2, synthetic full-length PLN, P61014.
T2 chain: T1 chain
Put plainly: SDS-PAGE. The note with it: remark: other sources report otherwise.

B1: phospholamban (PLN), wild type, in mouse heart, P61014 1-52 (natural protein)
chain: T1 chain
As usually defined, the stoichiometry N is a count of units in the complex or per binding partner. As to B1, in assay [1], the stoichiometry N was 5.

B2: synthetic full-length PLN, P61014 1-52 (natural protein)
chain: T1 chain
In the case of B2, the stoichiometry N in assay [2] is 5.

The values above are taken from PMC10318394.
